Measurements from US20140087995A1 (published 2014).
Numbered stars: 1 amine (or outer) side, 2 acyl side, 3 side chain; on linkers, the order of the positions; unused ones are H or OH. Bridge positions count the residues as written; N and C are the ends. Side chains are listed from the residue outwards. Ends that are not written are not given here. * marks the point of attachment. C20 diacid = O=C(O)CCCCCCCCCCCCCCCCCCC(=O)*; γGlu = O=C(O)[C@H](CCC(=O)[*:2])N[*:1]

T1: human calcitonin receptor (human, UniProt P30988 25-474)
T1 construct: whole, on cells; also called hCTR; hCT
T1 sequence (looked up): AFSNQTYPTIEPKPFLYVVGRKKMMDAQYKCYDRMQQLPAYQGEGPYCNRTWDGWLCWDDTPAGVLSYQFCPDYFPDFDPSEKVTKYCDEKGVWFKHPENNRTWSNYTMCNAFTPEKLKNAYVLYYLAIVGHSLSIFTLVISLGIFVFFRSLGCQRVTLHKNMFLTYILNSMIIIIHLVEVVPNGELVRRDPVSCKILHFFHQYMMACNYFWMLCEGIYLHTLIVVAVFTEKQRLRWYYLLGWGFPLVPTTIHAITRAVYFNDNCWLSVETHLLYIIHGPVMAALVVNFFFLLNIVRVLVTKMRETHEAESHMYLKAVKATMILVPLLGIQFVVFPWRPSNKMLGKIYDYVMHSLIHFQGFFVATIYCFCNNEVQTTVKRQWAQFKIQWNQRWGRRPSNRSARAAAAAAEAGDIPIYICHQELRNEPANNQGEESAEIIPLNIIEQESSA

B1: N^ε1-[(4S)-4-carboxy-4-(19-carboxynonadecanoylamino)butanoyl]-[Arg14,Arg17,Pro21,Pro27,Pro34]-h-amylin (peptide)
peptide: K([γGlu-C20 diacid])CNTATCATQRLARFLRHSSPNFGAIPSSTNVGPNTY-NH2
modifications: disulfide 2-7; N-terminus assumed
SMILES: CC[C@H](C)[C@H](NC(=O)[C@H](C)NC(=O)CNC(=O)[C@H](Cc1ccccc1)NC(=O)[C@H](CC(N)=O)NC(=O)[C@@H]1CCCN1C(=O)[C@H](CO)NC(=O)[C@H](CO)NC(=O)[C@H](Cc1c[nH]cn1)NC(=O)[C@H](CCCNC(=N)N)NC(=O)[C@H](CC(C)C)NC(=O)[C@H](Cc1ccccc1)NC(=O)[C@H](CCCNC(=N)N)NC(=O)[C@H](C)NC(=O)[C@H](CC(C)C)NC(=O)[C@H](CCCNC(=N)N)NC(=O)[C@H](CCC(N)=O)NC(=O)[C@@H](NC(=O)[C@H](C)NC(=O)[C@@H]1CSSC[C@H](NC(=O)[C@@H](N)CCCCNC(=O)CC[C@H](NC(=O)CCCCCCCCCCCCCCCCCCC(=O)O)C(=O)O)C(=O)N[C@@H](CC(N)=O)C(=O)N[C@@H]([C@@H](C)O)C(=O)N[C@@H](C)C(=O)N[C@@H]([C@@H](C)O)C(=O)N1)[C@@H](C)O)C(=O)N1CCC[C@H]1C(=O)N[C@@H](CO)C(=O)N[C@@H](CO)C(=O)N[C@H](C(=O)N[C@@H](CC(N)=O)C(=O)N[C@H](C(=O)NCC(=O)N1CCC[C@H]1C(=O)N[C@@H](CC(N)=O)C(=O)N[C@H](C(=O)N[C@@H](Cc1ccc(O)cc1)C(N)=O)[C@@H](C)O)C(C)C)[C@@H](C)O
notes: also called compound 65
B2: N^ε1-[(4S)-4-carboxy-4-(19-carboxynonadecanoylamino)butanoyl]-[Arg17,Pro21,Pro27,His35]-h-amylin (peptide)
peptide: K([γGlu-C20 diacid])CNTATCATQRLANFLRHSSPNFGAIPSSTNVGSHTY-NH2
modifications: disulfide 2-7; N-terminus assumed
SMILES: CC[C@H](C)[C@H](NC(=O)[C@H](C)NC(=O)CNC(=O)[C@H](Cc1ccccc1)NC(=O)[C@H](CC(N)=O)NC(=O)[C@@H]1CCCN1C(=O)[C@H](CO)NC(=O)[C@H](CO)NC(=O)[C@H](Cc1c[nH]cn1)NC(=O)[C@H](CCCNC(=N)N)NC(=O)[C@H](CC(C)C)NC(=O)[C@H](Cc1ccccc1)NC(=O)[C@H](CC(N)=O)NC(=O)[C@H](C)NC(=O)[C@H](CC(C)C)NC(=O)[C@H](CCCNC(=N)N)NC(=O)[C@H](CCC(N)=O)NC(=O)[C@@H](NC(=O)[C@H](C)NC(=O)[C@@H]1CSSC[C@H](NC(=O)[C@@H](N)CCCCNC(=O)CC[C@H](NC(=O)CCCCCCCCCCCCCCCCCCC(=O)O)C(=O)O)C(=O)N[C@@H](CC(N)=O)C(=O)N[C@@H]([C@@H](C)O)C(=O)N[C@@H](C)C(=O)N[C@@H]([C@@H](C)O)C(=O)N1)[C@@H](C)O)C(=O)N1CCC[C@H]1C(=O)N[C@@H](CO)C(=O)N[C@@H](CO)C(=O)N[C@H](C(=O)N[C@@H](CC(N)=O)C(=O)N[C@H](C(=O)NCC(=O)N[C@@H](CO)C(=O)N[C@@H](Cc1c[nH]cn1)C(=O)N[C@H](C(=O)N[C@@H](Cc1ccc(O)cc1)C(N)=O)[C@@H](C)O)C(C)C)[C@@H](C)O
notes: also called compound 60
B3: N^ε1-[(4S)-4-carboxy-4-(19-carboxynonadecanoylamino)butanoyl]-[Glu14,Arg17,Pro21,Pro27,Arg35]-h-amylin (peptide)
peptide: K([γGlu-C20 diacid])CNTATCATQRLAEFLRHSSPNFGAIPSSTNVGSRTY-NH2
modifications: disulfide 2-7; N-terminus assumed
SMILES: CC[C@H](C)[C@H](NC(=O)[C@H](C)NC(=O)CNC(=O)[C@H](Cc1ccccc1)NC(=O)[C@H](CC(N)=O)NC(=O)[C@@H]1CCCN1C(=O)[C@H](CO)NC(=O)[C@H](CO)NC(=O)[C@H](Cc1c[nH]cn1)NC(=O)[C@H](CCCNC(=N)N)NC(=O)[C@H](CC(C)C)NC(=O)[C@H](Cc1ccccc1)NC(=O)[C@H](CCC(=O)O)NC(=O)[C@H](C)NC(=O)[C@H](CC(C)C)NC(=O)[C@H](CCCNC(=N)N)NC(=O)[C@H](CCC(N)=O)NC(=O)[C@@H](NC(=O)[C@H](C)NC(=O)[C@@H]1CSSC[C@H](NC(=O)[C@@H](N)CCCCNC(=O)CC[C@H](NC(=O)CCCCCCCCCCCCCCCCCCC(=O)O)C(=O)O)C(=O)N[C@@H](CC(N)=O)C(=O)N[C@@H]([C@@H](C)O)C(=O)N[C@@H](C)C(=O)N[C@@H]([C@@H](C)O)C(=O)N1)[C@@H](C)O)C(=O)N1CCC[C@H]1C(=O)N[C@@H](CO)C(=O)N[C@@H](CO)C(=O)N[C@H](C(=O)N[C@@H](CC(N)=O)C(=O)N[C@H](C(=O)NCC(=O)N[C@@H](CO)C(=O)N[C@@H](CCCNC(=N)N)C(=O)N[C@H](C(=O)N[C@@H](Cc1ccc(O)cc1)C(N)=O)[C@@H](C)O)C(C)C)[C@@H](C)O
notes: also called compound 51
B4: N^ε1-[(4S)-4-carboxy-4-(19-carboxynonadecanoylamino)butanoyl]-[His14,Arg17,Pro21,Pro27,His35]-h-amylin (peptide)
peptide: K([γGlu-C20 diacid])CNTATCATQRLAHFLRHSSPNFGAIPSSTNVGSHTY-NH2
modifications: disulfide 2-7; N-terminus assumed
SMILES: CC[C@H](C)[C@H](NC(=O)[C@H](C)NC(=O)CNC(=O)[C@H](Cc1ccccc1)NC(=O)[C@H](CC(N)=O)NC(=O)[C@@H]1CCCN1C(=O)[C@H](CO)NC(=O)[C@H](CO)NC(=O)[C@H](Cc1c[nH]cn1)NC(=O)[C@H](CCCNC(=N)N)NC(=O)[C@H](CC(C)C)NC(=O)[C@H](Cc1ccccc1)NC(=O)[C@H](Cc1c[nH]cn1)NC(=O)[C@H](C)NC(=O)[C@H](CC(C)C)NC(=O)[C@H](CCCNC(=N)N)NC(=O)[C@H](CCC(N)=O)NC(=O)[C@@H](NC(=O)[C@H](C)NC(=O)[C@@H]1CSSC[C@H](NC(=O)[C@@H](N)CCCCNC(=O)CC[C@H](NC(=O)CCCCCCCCCCCCCCCCCCC(=O)O)C(=O)O)C(=O)N[C@@H](CC(N)=O)C(=O)N[C@@H]([C@@H](C)O)C(=O)N[C@@H](C)C(=O)N[C@@H]([C@@H](C)O)C(=O)N1)[C@@H](C)O)C(=O)N1CCC[C@H]1C(=O)N[C@@H](CO)C(=O)N[C@@H](CO)C(=O)N[C@H](C(=O)N[C@@H](CC(N)=O)C(=O)N[C@H](C(=O)NCC(=O)N[C@@H](CO)C(=O)N[C@@H](Cc1c[nH]cn1)C(=O)N[C@H](C(=O)N[C@@H](Cc1ccc(O)cc1)C(N)=O)[C@@H](C)O)C(C)C)[C@@H](C)O
notes: also called compound 66
B5: N^ε1-[(4S)-4-carboxy-4-(19-carboxynonadecanoylamino)butanoyl]-[Arg17,Pro21,Pro27,Glu35]-h-amylin (peptide)
peptide: K([γGlu-C20 diacid])CNTATCATQRLANFLRHSSPNFGAIPSSTNVGSETY-NH2
modifications: disulfide 2-7; N-terminus assumed
SMILES: CC[C@H](C)[C@H](NC(=O)[C@H](C)NC(=O)CNC(=O)[C@H](Cc1ccccc1)NC(=O)[C@H](CC(N)=O)NC(=O)[C@@H]1CCCN1C(=O)[C@H](CO)NC(=O)[C@H](CO)NC(=O)[C@H](Cc1c[nH]cn1)NC(=O)[C@H](CCCNC(=N)N)NC(=O)[C@H](CC(C)C)NC(=O)[C@H](Cc1ccccc1)NC(=O)[C@H](CC(N)=O)NC(=O)[C@H](C)NC(=O)[C@H](CC(C)C)NC(=O)[C@H](CCCNC(=N)N)NC(=O)[C@H](CCC(N)=O)NC(=O)[C@@H](NC(=O)[C@H](C)NC(=O)[C@@H]1CSSC[C@H](NC(=O)[C@@H](N)CCCCNC(=O)CC[C@H](NC(=O)CCCCCCCCCCCCCCCCCCC(=O)O)C(=O)O)C(=O)N[C@@H](CC(N)=O)C(=O)N[C@@H]([C@@H](C)O)C(=O)N[C@@H](C)C(=O)N[C@@H]([C@@H](C)O)C(=O)N1)[C@@H](C)O)C(=O)N1CCC[C@H]1C(=O)N[C@@H](CO)C(=O)N[C@@H](CO)C(=O)N[C@H](C(=O)N[C@@H](CC(N)=O)C(=O)N[C@H](C(=O)NCC(=O)N[C@@H](CO)C(=O)N[C@@H](CCC(=O)O)C(=O)N[C@H](C(=O)N[C@@H](Cc1ccc(O)cc1)C(N)=O)[C@@H](C)O)C(C)C)[C@@H](C)O
notes: also called compound 27
B6: N^ε1-[(4S)-4-carboxy-4-(19-carboxynonadecanoylamino)butanoyl]-[Arg17,Pro21,Pro27,Lys35]-h-amylin (peptide)
peptide: K([γGlu-C20 diacid])CNTATCATQRLANFLRHSSPNFGAIPSSTNVGSKTY-NH2
modifications: disulfide 2-7; N-terminus assumed
SMILES: CC[C@H](C)[C@H](NC(=O)[C@H](C)NC(=O)CNC(=O)[C@H](Cc1ccccc1)NC(=O)[C@H](CC(N)=O)NC(=O)[C@@H]1CCCN1C(=O)[C@H](CO)NC(=O)[C@H](CO)NC(=O)[C@H](Cc1c[nH]cn1)NC(=O)[C@H](CCCNC(=N)N)NC(=O)[C@H](CC(C)C)NC(=O)[C@H](Cc1ccccc1)NC(=O)[C@H](CC(N)=O)NC(=O)[C@H](C)NC(=O)[C@H](CC(C)C)NC(=O)[C@H](CCCNC(=N)N)NC(=O)[C@H](CCC(N)=O)NC(=O)[C@@H](NC(=O)[C@H](C)NC(=O)[C@@H]1CSSC[C@H](NC(=O)[C@@H](N)CCCCNC(=O)CC[C@H](NC(=O)CCCCCCCCCCCCCCCCCCC(=O)O)C(=O)O)C(=O)N[C@@H](CC(N)=O)C(=O)N[C@@H]([C@@H](C)O)C(=O)N[C@@H](C)C(=O)N[C@@H]([C@@H](C)O)C(=O)N1)[C@@H](C)O)C(=O)N1CCC[C@H]1C(=O)N[C@@H](CO)C(=O)N[C@@H](CO)C(=O)N[C@H](C(=O)N[C@@H](CC(N)=O)C(=O)N[C@H](C(=O)NCC(=O)N[C@@H](CO)C(=O)N[C@@H](CCCCN)C(=O)N[C@H](C(=O)N[C@@H](Cc1ccc(O)cc1)C(N)=O)[C@@H](C)O)C(C)C)[C@@H](C)O
notes: also called compound 35

target: T1, human calcitonin receptor; experiment: SPA competition with 125I-calcitonin, membranes of BHK hCTR cells (Assay VII)
Summary of the method: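 BHK hCTR membranes 35 ng/μL + SPA beads 0.05 mg/well; buffer 50 mM Hepes pH 7.4, 1 mM CaCl2, 5 mM MgCl₂, 0.1% OA, 0.02% Tween20. 120 min, 25° C., shaking. Scintillation count; IC50 by one-site binding competition.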

| Binder | IC50 [nM] |
| --- | --- |
| B1 | 53.5 |
| B2 | 31.4 |
| B3 | 31.1 |
| B4 | 18 |
| B5 | 34.5 |
| B6 | 48.8 |
